The source of these data is patent publication EP4671273A1 (Anaveon AG, dated 2025).

Where a chain is given by its changes, count along the chain named.

B1: ZAP122 Fab (Fab, V domains shown)
VH: QVQLQESGPGLVKPSETLSLTCTVSGGSISSDFWGWIRQPPGKGLEWIGYISSRGSTNYNPSLKRRVTISVDTSRNQFSLKLSSVTAADTAVYYCARSAGVTDFDFWGQGTLVTVSS
VL: DIQMTQSPSSVSASVGDRVTITCRASQGISSWLAWYQHKPGKAPKLLIYVASSLQSGVPSRFSGSGSGTDFTLTISSLQPEDFATYYCQQANSFPLTFGGGTKVEIK
notes: Fab; also called ZAP122 wt
B2: ZXI489 Fab (Fab, V domains shown)
VH: B1 VH with F33Y, S53Y, R65S, F106W
VL: B1 VL with M4L, N92S, F94A
notes: Fab
B3: 21A08Ap1 (antibody, human IgG1, V domains shown)
VH: EVQLLESGGGLVQPGGSLRLSCAASGFTFSINAMTWVRQAPGKGLEWVSTISGSGFSTYYADSLKGRFTISRDNSKNTLYLQMNSLRAEDTAVYYCAKEVYGDYWGQGTLVTVSS
VL: RSVLTQPPSASGTPGQRVSISCSGASSNIGSQSVFWYQQLPGTAPKLLIYSNNQRPSGVPDRFSGSKSGTSASLAISGLRSEDEADYYCAAWDDSLSIWVFGGGTKLTVL
notes: human IgG1; also called anti-PD-1 antibody clone 21A08Ap1
B4: KOW427 (antibody, human IgG1, V domains shown)
VH: B3 VH
VL: B3 VL with L48G
notes: human IgG1
B5: FHX509 (antibody, human IgG1, V domains shown)
VH: B3 VH
VL: B3 VL with I98A
notes: human IgG1
B6: GZZ692 (antibody, human IgG1, V domains shown)
VH: B3 VH
VL: B3 VL with I49G
notes: human IgG1
B7: JOH712 (antibody, human IgG1, V domains shown)
VH: B3 VH
VL: B3 VL with L40H
notes: human IgG1
B8: GDY271 (antibody, human IgG1, V domains shown)
VH: B3 VH
VL: B3 VL with F35Y
notes: human IgG1
B9: JZW468 (antibody, human IgG1, V domains shown)
VH: B3 VH
VL: B3 VL with S95Q
notes: human IgG1

T2 sequence (Q9HBE4 30-162 limits assumed): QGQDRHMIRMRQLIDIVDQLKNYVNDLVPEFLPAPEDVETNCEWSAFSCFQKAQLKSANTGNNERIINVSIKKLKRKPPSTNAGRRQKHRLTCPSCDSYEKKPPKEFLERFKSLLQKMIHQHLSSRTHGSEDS
T1 sequence (Q9HBE4 30-162): as the sequence (Q9HBE4 30-162 limits assumed) above

The first experiment addresses T1, Recombinant hIL-21-Fc (AcroBiosystems) (human, UniProt Q9HBE4 30-162).
T1 construct: bought; also called rhIL-21; not shown: Fc of the bought reagent, not described
Put plainly: SPR, Fab on captured rhIL-21-Fc. (In SPR one partner is held on a chip, and binding of the other changes the refractive index at the surface.)
Turning to B1, the Kd was less than 0.0265 nM, the dissociation rate constant (koff) was less than 1e-05 s⁻¹ and the association rate constant (kon) stood at 377000 M⁻¹ s⁻¹.

Another experiment addresses T2, rhIL-21-His (AB235875-1001, Abcam) (human, UniProt Q9HBE4 30-162).
T2 construct: bought; not shown: His tag, length and position not described
Put plainly: SPR, Fab on captured rhIL-21-His.
In turn, B1 registered an equilibrium dissociation constant (Kd) of 0.313 nM, an off-rate (koff) of 6.91e-05 s⁻¹ and a kon of 221000 M⁻¹ s⁻¹.

In turn, B2 had a Kd of 7.04 nM, a koff of 0.00484 s⁻¹ and an on-rate (kon) of 688000 M⁻¹ s⁻¹.

The target in the next experiment is T3, human PD-1 (#PD1-H82E4, AcroBiosystems) (human, UniProt Q15116 25-167).
T3 construct: bought
T3 sequence (Q15116 25-167 limits assumed): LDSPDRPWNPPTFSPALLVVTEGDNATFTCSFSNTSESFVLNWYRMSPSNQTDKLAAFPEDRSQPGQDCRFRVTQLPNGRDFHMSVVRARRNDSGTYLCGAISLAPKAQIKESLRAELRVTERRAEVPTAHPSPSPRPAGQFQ
Put plainly: SPR, PD-1 on captured IgG1.
For the molecule B3, the Kd was found to be 1.27 nM, the off-rate (koff) was determined as 0.00011 s⁻¹ and the kon came out at 86800 M⁻¹ s⁻¹.

B4 yielded a Kd of 0.586 nM, a koff of 7.97e-05 s⁻¹ and a kon of 136000 M⁻¹ s⁻¹.

B5 returned a dissociation constant Kd of 0.694 nM, an off-rate constant (koff) of 8.38e-05 s⁻¹ and an on-rate (kon) of 121000 M⁻¹ s⁻¹.

B6 displayed a dissociation constant Kd of 1.41 nM, a koff of 0.000209 s⁻¹ and an on-rate constant (kon) of 148000 M⁻¹ s⁻¹.

In the case of B7, the affinity, expressed as Kd, was 0.546 nM; the dissociation rate constant (koff) is 8.88e-05 s⁻¹; the kon was 163000 M⁻¹ s⁻¹.

For the molecule B8, the Kd is 3.56 nM, the koff was 0.0013 s⁻¹ and the on-rate (kon) came out at 364000 M⁻¹ s⁻¹.

For B9, the dissociation constant (Kd) amounted to 0.631 nM, the off-rate constant (koff) was 9.2e-05 s⁻¹ and the kon amounted to 146000 M⁻¹ s⁻¹.

The target of the next experiment is T4, cynomolgus PD-1 (#PD1-C52H5, AcroBiosystems) (cynomolgus monkey, UniProt B0LAJ3 25-170).
T4 construct: bought; also called cynomolgus monkey PD-1; not shown: the vendor's tag on the recombinant protein (AcroBiosystems #PD1-C52H5)
T4 sequence (B0LAJ3 entry or part of it limits assumed, form in doubt): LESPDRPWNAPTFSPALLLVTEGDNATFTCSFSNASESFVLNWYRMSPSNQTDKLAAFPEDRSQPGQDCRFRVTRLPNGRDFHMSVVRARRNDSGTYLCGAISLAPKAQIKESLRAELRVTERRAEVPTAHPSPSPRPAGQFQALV
Put plainly: SPR, PD-1 on captured IgG1.
B3 displayed an equilibrium dissociation constant (Kd) of 1.25 nM, an off-rate (koff) of 0.000259 s⁻¹ and an on-rate (kon) of 206000 M⁻¹ s⁻¹.

Turning to B4, the Kd is 1.27 nM, the dissociation rate constant (koff) is 0.000296 s⁻¹ and the kon came to 233000 M⁻¹ s⁻¹.

As for B5, the dissociation constant (Kd) worked out at 0.699 nM, the koff came to 0.000239 s⁻¹ and the on-rate (kon) was 341000 M⁻¹ s⁻¹.

Turning to B6, binding was characterised by a dissociation constant (Kd) of 4.5 nM, the koff amounted to 0.00153 s⁻¹ and the kon was found to be 340000 M⁻¹ s⁻¹.

Molecule B7 came in with a dissociation constant (Kd) of 1.11 nM, a koff of 0.000252 s⁻¹ and an on-rate constant (kon) of 227000 M⁻¹ s⁻¹.

Turning to B8, the equilibrium dissociation constant (Kd) was found to be 6.38 nM, the koff is 12.2 s⁻¹ and the on-rate (kon) was found to be 1.91e+09 M⁻¹ s⁻¹.

Molecule B9 had a dissociation constant (Kd) of 0.959 nM, a koff of 0.00029 s⁻¹ and a kon of 302000 M⁻¹ s⁻¹.

The term Kd denotes the concentration at which binding is half-saturated. One may read the koff as the rate constant with which the complex falls apart. The kon is a measure of how fast the partners come together.
